Sequences and labels used below:
T1: Recombinant Human IL-17 (human, UniProt Q16552 20-155, limits assumed)
T1 sequence (looked up): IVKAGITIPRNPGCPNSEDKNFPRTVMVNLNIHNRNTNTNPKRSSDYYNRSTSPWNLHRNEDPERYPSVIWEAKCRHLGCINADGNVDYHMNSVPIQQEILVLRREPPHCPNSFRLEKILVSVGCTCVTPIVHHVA

B1: DVD1276 (bispecific antibody, human IgG1, kappa)
heavy: not shown
light: DTQVTQSPSSLSASVGDRVTITCITSTDIDVDMNWYQQKPGKPPKLLISQGNTLRPGVPSRFSSSGSGTDFTFTISSLQPEDFATYYCLQSDNLPLTFGQGTKLEIKRTVAAPEIVLTQSPDFQSVTPKEKVTITCRASQDIGSELHWYQQKPDQPPKLLIKYASHSTSGVPSRFSGSGSGTDFTLTINGLEAEDAGTYYCHQTDSLPYTFGPGTKVDIKRTVAAPSVFIFPPSDEQLKSGTASVVCLLNNFYPREAKVQWKVDNALQSGNSQESVTEQDSKDSTYSLSSTLTLSKADYEKHKVYACEVTHQGLSSPVTKSFNRGEC
notes: DVD-Ig, outer AB270, inner AB274, linker set 1; V1 wt hIgG1, V2 kappa; also called DVD1276H; DVD1276L
B2: DVD1290 (bispecific antibody, human IgG1, kappa)
heavy: not shown
light: B1 light with D1E, Q3T, D141N, P156S, T168I, G197A, T204S, S206T, Y209H, P213Q
notes: DVD-Ig, outer AB272, inner AB275, linker set 1; V1 wt hIgG1, V2 kappa; also called DVD1290H; DVD1290L
B3: DVD1286 (bispecific antibody, human IgG1, kappa)
heavy: not shown
light: B1 light with D141N, P156S, T168I, G197A, T204S, S206T, Y209H, P213Q
notes: DVD-Ig, outer AB270, inner AB275, linker set 1; V1 wt hIgG1, V2 kappa; also called DVD1286H; DVD1286L
B4: DVD1280 (bispecific antibody, human IgG1, kappa)
heavy: not shown
light: B1 light with D1E, Q3T
notes: DVD-Ig, outer AB272, inner AB274, linker set 1; V1 wt hIgG1, V2 kappa; also called DVD1280H; DVD1280L
B5: DVD1278 (bispecific antibody, human IgG1, kappa)
heavy: not shown
light: DTVVTQSPAFLSVTPGEKVTITCITSTDIDVDMNWYQQKPDQPPKLLISQGNTLRPGVPSRFSSSGSGTDFTFTISSLEAEDAATYYCLQSDNLPLTFGQGTKLEIKRTVAAPEIVLTQSPDFQSVTPKEKVTITCRASQDIGSELHWYQQKPDQPPKLLIKYASHSTSGVPSRFSGSGSGTDFTLTINGLEAEDAGTYYCHQTDSLPYTFGPGTKVDIKRTVAAPSVFIFPPSDEQLKSGTASVVCLLNNFYPREAKVQWKVDNALQSGNSQESVTEQDSKDSTYSLSSTLTLSKADYEKHKVYACEVTHQGLSSPVTKSFNRGEC
notes: DVD-Ig, outer AB271, inner AB274, linker set 1; V1 wt hIgG1, V2 kappa; also called DVD1278H; DVD1278L
B6: DVD1288 (bispecific antibody, human IgG1, kappa)
heavy: not shown
light: B5 light with D141N, P156S, T168I, G197A, T204S, S206T, Y209H, P213Q
notes: DVD-Ig, outer AB271, inner AB275, linker set 1; V1 wt hIgG1, V2 kappa; also called DVD1288H; DVD1288L
B7: DVD1282 (bispecific antibody, human IgG1, kappa)
heavy: not shown
light: DIQMTQSPSSLSASVGDRVTITCRASGNIHNYLTWYQQTPGKAPKLLIYNAKTLADGVPSRFSGSGSGTDYTFTISSLQPEDIATYYCQHFWSIPYTFGQGTKLQITRTVAAPEIVLTQSPDFQSVTPKEKVTITCRASQNIGSELHWYQQKPDQSPKLLIKYASHSISGVPSRFSGSGSGTDFTLTINGLEAEDAATYYCHQSDTLPHTFGQGTKVDIKRTVAAPSVFIFPPSDEQLKSGTASVVCLLNNFYPREAKVQWKVDNALQSGNSQESVTEQDSKDSTYSLSSTLTLSKADYEKHKVYACEVTHQGLSSPVTKSFNRGEC
notes: V1 wt hIgG1, V2 kappa; also called DVD1282H; DVD1282L
B8: DVD1284 (bispecific antibody, human IgG1, kappa)
heavy: not shown
light: B7 light
notes: V1 wt hIgG1, V2 kappa; also called DVD1284H; DVD1284L
B9: AB273 (antibody, human IgG1, kappa, V domains shown)
VH: EVQLVQSGAEVKKPGSSVKVSCKASGYTFTDYEIHWVRQAPGQGLEWMGVNDPESGGTFYNQKFDGRVTLTADESTSTAYMELSSLRSEDTAVYYCTRYSKWDSFDGMDYWGQGTTVTVSS
VL: DIQMTQSPSSLSASVGDRVTITCRASSGIISYIDWFQQKPGKAPKRLIYATFDLASGVPSRFSGSGSGTDYTLTISSLQPEDFATYYCRQVGSYPETFGQGTKLEIKR
B10: DVD1266 (bispecific antibody, human IgG1, kappa)
heavy: not shown
light: DTQVTQSPSSLSASVGDRVTITCITSTDIDVDMNWYQQKPGKPPKLLISQGNTLRPGVPSRFSSSGSGTDFTFTISSLQPEDFATYYCLQSDNLPLTFGQGTKLEIKRTVAAPDIQMTQSPSSLSASVGDRVTITCRASSGIISYIDWFQQKPGKAPKRLIYATFDLASGVPSRFSGSGSGTDYTLTISSLQPEDFATYYCRQVGSYPETFGQGTKLEIKRTVAAPSVFIFPPSDEQLKSGTASVVCLLNNFYPREAKVQWKVDNALQSGNSQESVTEQDSKDSTYSLSSTLTLSKADYEKHKVYACEVTHQGLSSPVTKSFNRGEC
B11: DVD1262 (bispecific antibody, human IgG1, kappa)
heavy: not shown
light: DIQMTQSPSSLSASVGDRVTITCRASGNIHNYLTWYQQTPGKAPKLLIYNAKTLADGVPSRFSGSGSGTDYTFTISSLQPEDIATYYCQHFWSIPYTFGQGTKLQITRTVAAPDIQMTQSPSSLSASVGDRVTITCRASSGIISYIDWFQQKPGKAPKRLIYATFDLASGVPSRFSGSGSGTDYTLTISSLQPEDFATYYCRQVGSYPETFGQGTKLEIKRTVAAPSVFIFPPSDEQLKSGTASVVCLLNNFYPREAKVQWKVDNALQSGNSQESVTEQDSKDSTYSLSSTLTLSKADYEKHKVYACEVTHQGLSSPVTKSFNRGEC
B12: DVD1264 (bispecific antibody, human IgG1, kappa)
heavy: not shown
light: B11 light
B13: DVD1263 (bispecific antibody, human IgG1, kappa)
heavy: not shown
light: DIQMTQSPSSLSASVGDRVTITCRASSGIISYIDWFQQKPGKAPKRLIYATFDLASGVPSRFSGSGSGTDYTLTISSLQPEDFATYYCRQVGSYPETFGQGTKLEIKRTVAAPDIQMTQSPSSLSASVGDRVTITCRASGNIHNYLTWYQQTPGKAPKLLIYNAKTLADGVPSRFSGSGSGTDYTFTISSLQPEDIATYYCQHFWSIPYTFGQGTKLQITRTVAAPSVFIFPPSDEQLKSGTASVVCLLNNFYPREAKVQWKVDNALQSGNSQESVTEQDSKDSTYSLSSTLTLSKADYEKHKVYACEVTHQGLSSPVTKSFNRGEC
B14: DVD1265 (bispecific antibody, human IgG1, kappa)
heavy: not shown
light: B13 light

The results in this text go back to patent publication US20120034160A1 (AbbVie / Abbott, published 2012).

In general, Kd refers to the equilibrium constant for the complex coming apart. The term koff denotes the rate constant with which the complex falls apart. For orientation: kon means the rate constant with which the complex forms.

Residue numbers refer to the chain shown, from its start.

The first experiment concerns the target T2, Recombinant Human IL-1β (human, UniProt P01584 117-269).
T2 construct: bought reagent; also called IL-1B
The experiment in a line: Biacore SPR; N-terminal VD. In a few lines: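 First, goat anti-mouse IgG was immobilized on a CM5 chip by amine coupling. Next, test antibody or DVD-Ig (25 μg/ml) was captured. Then antigen at 10−200 nM flowed over at 25 μl/min, 25° C. Finally, association and dissociation phases were globally fitted to a 1:1 model.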
Consider B1, for which the equilibrium dissociation constant (Kd) is 0.082 nM, the koff turned out to be 0.00045 s⁻¹ and the kon was 5.6e+06 M⁻¹ s⁻¹.
With B2, the Kd worked out at 0.086 nM, the koff was 0.00065 s⁻¹ and the kon was determined as 7.5e+06 M⁻¹ s⁻¹.
For B3 the same measures were 0.07 nM, 0.0005 s⁻¹ and 7.2e+06 M⁻¹ s⁻¹.
For B4 the same measures were 0.08 nM, 0.00063 s⁻¹ and 7.9e+06 M⁻¹ s⁻¹.
For B5 the same measures were 0.069 nM, 0.00047 s⁻¹ and 6.9e+06 M⁻¹ s⁻¹.
Regarding B6, the Kd stood at 0.076 nM, the koff is 0.00046 s⁻¹ and the kon was 6.1e+06 M⁻¹ s⁻¹.
In the same order, the values of B7 are 0.043 nM, 7.2e-05 s⁻¹ and 1.7e+06 M⁻¹ s⁻¹.
As to B8, the Kd worked out at 0.017 nM, the koff worked out at 1.9e-05 s⁻¹ and the kon was determined as 1.1e+06 M⁻¹ s⁻¹.

Another experiment has as its target T1, Recombinant Human IL-17. The experiment in a line: cell-based or functional assay.
In the case of B9, the “IL-17 Neutralization Assay EC50” value turned out to be 0.0161 nM.
Regarding B10, the “C-terminal VD IL-17 Neutralization Assay EC50” value turned out to be 0.015 nM.
Still for that read-out and setting: the value for B11 was 0.0162 nM; that for B12 was 0.0084 nM.
For the molecule B13, the “N-terminal VD IL-17 Neutralization Assay EC50” value is 0.0052 nM.
For B14, the “N-terminal VD IL-17 Neutralization Assay EC50” value was 0.0028 nM.

In the next experiment the target is Recombinant Human IL-1β (human, UniProt P01584 117-269). Briefly: cell-based or functional assay.
Turning to B10, the “N-Terminal VD IL-1β Neutralization Assay EC50” value worked out at 0.327 nM.
Still for that read-out and setting: for B11 the value was 0.0164 nM.
Same read-out and setting: the value for B12 was 0.12 nM.
As for B13, the “C-Terminal VD IL-1β Neutralization Assay EC50” value was 20 nM.
As for B14, the “C-Terminal VD IL-1β Neutralization Assay EC50” value is 0.925 nM.
